Reference: the Human Domainome abundance scans (Beltran et al. 2025)
± gives the uncertainty stated by the source.

B1: Zinc finger homeobox protein 3, residues 2643 to 2698; numbered along this chain, Q15911 (parent)
chain: RLRTTITPEQLEILYQKYLLDSNPTRKMLDHIAHEVGLKKRVVQVWFQNTRARERK

Variants of: B1
Assay: abundance fitness (aPCA) (normalised: wild type 0, dead -1); higher = more abundant; growth selection in yeast, the domain comes from the species named
Conditions: Homo sapiens

Variant	abundance fitness
RLRTTITPEQLEILYQKYLLDSNPTRKMLDHIAHEVGLKKRVVMVWFQNTRARERK [Q44M]	-0.164 ± 0.1
RLRTTITPEQLEILYQKYLLDSNPTRKMLDHIAHEVGLKKRVVIVWFQNTRARERK [Q44I]	-0.286 ± 0.13
RLRTTITPEQLEILYQKYLLDSNPTRKMIDHIAHEVGLKKRVVQVWFQNTRARERK [L29I]	0.167 ± 0.13
RLRTTTTPEQLEILYQKYLLDSNPTRKMLDHIAHEVGLKKRVVQVWFQNTRARERK [I6T]	-0.211 ± 0.081
RLRTTITPEQLEILYQKYLLDSNPTRKMLDHIAHEVGLKKRVVQVWFQNTRAREWK [R55W]	0.017 ± 0.1
RLRTTITPEQLEILYQKYLLDSNPTRKMLDHIAHEVGLKKRVVQVWFQNTRARECK [R55C]	0.263 ± 0.099
RLRTTITPEQLEILYQKYLLDSNPTRKMLDHIAHEVGLKKRVVQVWFQNTRAREEK [R55E]	0.255 ± 0.13
RLRTTITPEQLEILYQKYLLDSNPTRKMLDHIAHEVGLKKRVTQVWFQNTRARERK [V43T]	-0.548 ± 0.11
RLRTTITPEQLEILYQKYLLDSNPTRKMLDHIAHEVGLKKRKVQVWFQNTRARERK [V42K]	0.16 ± 0.15
RFRTTITPEQLEILYQKYLLDSNPTRKMLDHIAHEVGLKKRVVQVWFQNTRARERK [L2F]	0.082 ± 0.16
RLRTTITPDQLEILYQKYLLDSNPTRKMLDHIAHEVGLKKRVVQVWFQNTRARERK [E9D]	-0.042 ± 0.092
RLRTTITPEQLEILYQKYLLDSNPTRKMLDHIAHEVGLKKRVVQVWFQNGRARERK [T50G]	-0.549 ± 0.073
RLRTTITPEQLEILYQKYLLDSNPTRKMLDHIAHEVGLKKRVVQVWFQNARARERK [T50A]	0.056 ± 0.086
RLRTTITPEQLEILYQKYLLDSNPTRKMLDHGAHEVGLKKRVVQVWFQNTRARERK [I32G]	-0.77 ± 0.094
RLRTTITPEQLEILYQKYLLDSNPTRKMLDSIAHEVGLKKRVVQVWFQNTRARERK [H31S]	0.215 ± 0.086
RLRTTITPEQLEILYQKYLLDSNPTRKMLDAIAHEVGLKKRVVQVWFQNTRARERK [H31A]	0.109 ± 0.083
RLRTTITPEQLEILYQKYLLDSNPTRKMLDHIAHEVFLKKRVVQVWFQNTRARERK [G37F]	-0.55 ± 0.15
RLRTTITPEQLEILYQKYLLDSNPTRKMLDHIAHEVPLKKRVVQVWFQNTRARERK [G37P]	-0.637 ± 0.13
RLRTTITPEQLEILYQKYLLDSNPTRKMLDHIAHEVALKKRVVQVWFQNTRARERK [G37A]	-0.366 ± 0.084
RLRTTITPEQLEILYQKYLLDSNPTRKMLDHIAHEVGLCKRVVQVWFQNTRARERK [K39C]	0.184 ± 0.12
RLRTTITPEQLEILYQKYLLDSNPTRKMLDHIAHEVGLPKRVVQVWFQNTRARERK [K39P]	0.224 ± 0.12
RLRTTITPEQLEILYQKYLLDSNPTRKMLDHIAHVVGLKKRVVQVWFQNTRARERK [E35V]	-0.255 ± 0.092

Variant	abundance fitness
RLRTTITPEQLEILYQKYLLDSNPTRKMLDHIAHHVGLKKRVVQVWFQNTRARERK [E35H]	-0.274 ± 0.13
VLRTTITPEQLEILYQKYLLDSNPTRKMLDHIAHEVGLKKRVVQVWFQNTRARERK [R1V]	0.297 ± 0.19
RLRTTITPEQLEILYQKYLLDSNPTRKMLDHIAHEVGLKRRVVQVWFQNTRARERK [K40R]	-0.064 ± 0.082
RLRTTITPEQLEILYQKYLLDSNPTRKMLDHIAHEVGLKGRVVQVWFQNTRARERK [K40G]	0.04 ± 0.079
RLRTTITPEQLEILYQKYLLDSNPTRKMLDHIAHEVGLKYRVVQVWFQNTRARERK [K40Y]	0.16 ± 0.18
RLRTTITPEQLEILYQKYLLDSNPTRKMLDHIAHEVGLKKRVVQVWFFNTRARERK [Q48F]	-0.802 ± 0.24
RLRTTITPEQLEILYQKYLLDSNPTRKMLDHIAHEVGLKKRVVQVWFINTRARERK [Q48I]	-0.687 ± 0.32
RLRTTITPEVLEILYQKYLLDSNPTRKMLDHIAHEVGLKKRVVQVWFQNTRARERK [Q10V]	-0.321 ± 0.078
RLRTTITPEILEILYQKYLLDSNPTRKMLDHIAHEVGLKKRVVQVWFQNTRARERK [Q10I]	-0.27 ± 0.079
RLRTTITFEQLEILYQKYLLDSNPTRKMLDHIAHEVGLKKRVVQVWFQNTRARERK [P8F]	0.584 ± 0.2
RLRTTITDEQLEILYQKYLLDSNPTRKMLDHIAHEVGLKKRVVQVWFQNTRARERK [P8D]	-0.084 ± 0.14
RLRTTITPEQLEILYQKYLLDSNPTRKMLDHIYHEVGLKKRVVQVWFQNTRARERK [A33Y]	-0.822 ± 0.11
RLRTTITPEQLEILYQKYLLDSNPTRKMLDHIAHEVGTKKRVVQVWFQNTRARERK [L38T]	-0.616 ± 0.13
RLRTTITPEQLEILYQIYLLDSNPTRKMLDHIAHEVGLKKRVVQVWFQNTRARERK [K17I]	-0.628 ± 0.44
RLRTTITPEQLEILYQKYLLDSNPTYKMLDHIAHEVGLKKRVVQVWFQNTRARERK [R26Y]	-0.031 ± 0.2
RLRTTITPEQEEILYQKYLLDSNPTRKMLDHIAHEVGLKKRVVQVWFQNTRARERK [L11E]	0.026 ± 0.11
RLRTTITPEQDEILYQKYLLDSNPTRKMLDHIAHEVGLKKRVVQVWFQNTRARERK [L11D]	0.17 ± 0.11
RLRTTITPEQFEILYQKYLLDSNPTRKMLDHIAHEVGLKKRVVQVWFQNTRARERK [L11F]	-0.341 ± 0.14
RLRITITPEQLEILYQKYLLDSNPTRKMLDHIAHEVGLKKRVVQVWFQNTRARERK [T4I]	0.048 ± 0.21
RLRTTITPEQLEILYQKYLLDSNPTRKMLDHIAHEVGLKKRVVQVWFQNTRARFRK [E54F]	-0.167 ± 0.088
RLRTTITPEQLEILYQKYLTDSNPTRKMLDHIAHEVGLKKRVVQVWFQNTRARERK [L20T]	-0.057 ± 0.11
RLRTTITPEQLEILYQKYLEDSNPTRKMLDHIAHEVGLKKRVVQVWFQNTRARERK [L20E]	-0.079 ± 0.15
